From patent US12679878B2, “CRF2 receptor agonists and their use in therapy” (SANOFI, priority 2020, dated 2026)
Starred links: 1 amine or outer side, 2 acyl side, 3 side chain; linkers in the order of their positions; H or OH if unused. Non-standard residues stand in square brackets, D forms with d. Groups on a side chain read outwards from the residue. No end group written: not given here. *: point of attachment. C18 diacid = O=C(O)CCCCCCCCCCCCCCCCC(=O)*; γGlu = O=C(O)[C@H](CCC(=O)[*:2])N[*:1]; Palmitoyl = CCCCCCCCCCCCCCCC(=O)*; Aib = CC(C)(N)C(=O)O

T1: anti-target CRF1R receptor (UniProt P34998 24-415, limits assumed)
T1 sequence (looked up): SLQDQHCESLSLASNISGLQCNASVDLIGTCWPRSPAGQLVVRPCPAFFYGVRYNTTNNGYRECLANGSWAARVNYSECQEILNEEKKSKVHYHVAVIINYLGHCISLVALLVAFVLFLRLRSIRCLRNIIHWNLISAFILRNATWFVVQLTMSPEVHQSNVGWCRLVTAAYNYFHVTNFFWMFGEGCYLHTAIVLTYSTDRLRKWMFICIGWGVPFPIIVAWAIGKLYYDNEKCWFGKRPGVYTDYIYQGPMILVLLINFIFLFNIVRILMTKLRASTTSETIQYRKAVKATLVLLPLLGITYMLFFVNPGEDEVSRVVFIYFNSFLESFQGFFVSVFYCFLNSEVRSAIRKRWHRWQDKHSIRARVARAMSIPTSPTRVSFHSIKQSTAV


Legend:
rat CRF2R α receptor = rat CRF2R α receptor (rat, UniProt P47866 20-411); assay: cell-based or functional assay
Chain of rat CRF2R α receptor (P47866 20-411): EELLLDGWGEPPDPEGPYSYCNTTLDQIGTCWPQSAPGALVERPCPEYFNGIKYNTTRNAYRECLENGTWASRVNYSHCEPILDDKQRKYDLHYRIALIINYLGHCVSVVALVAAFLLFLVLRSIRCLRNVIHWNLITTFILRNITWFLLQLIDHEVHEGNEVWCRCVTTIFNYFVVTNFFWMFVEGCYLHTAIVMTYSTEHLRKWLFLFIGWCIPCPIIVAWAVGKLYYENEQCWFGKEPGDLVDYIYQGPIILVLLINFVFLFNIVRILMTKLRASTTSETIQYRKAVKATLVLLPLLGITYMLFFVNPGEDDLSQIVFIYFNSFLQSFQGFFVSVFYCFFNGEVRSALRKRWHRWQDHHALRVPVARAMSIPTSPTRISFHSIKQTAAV

[1] = biological target: T1, anti-target CRF1R receptor; assay: cell-based or functional assay

Row | Binder | EC50 [nM], 0% HSA (cAMP, A7R5 cells) (rat CRF2R α receptor) [nM] | EC50[nM] 0% HSA (cAMP, CRF1R-overexpression CHO cells) [1] [nM] | Emax (%) (cAMP, CRF1R-overexpression CHO cells) [1]
1 | IVLSLD[dV]PTKLK([γGlu-Palmitoyl])QKLLKQERQRKERE[Aib]AEKNKRILERV-NH2 [peptide of SEQ ID NO: 225] | 0.12 |  | 
2 | IVLSLD[dV]PIGLK([γGlu-Palmitoyl])QKLLKQQRQRKERQQAEKNKRILERV-NH2 (N-terminus assumed; SMILES CCCCCCCCCCCCCCCC(=O)N[C@@H](CCC(=O)NCCCC[C@H](NC(=O)[C@H](CC(C)C)NC(=O)CNC(=O)[C@@H](NC(=O)[C@@H]1CCCN1C(=O)[C@H](NC(=O)[C@H](CC(=O)O)NC(=O)[C@H](CC(C)C)NC(=O)[C@H](CO)NC(=O)[C@H](CC(C)C)NC(=O)[C@@H](NC(=O)[C@@H](N)[C@@H](C)CC)C(C)C)C(C)C)[C@@H](C)CC)C(=O)N[C@@H](CCC(N)=O)C(=O)N[C@@H](CCCCN)C(=O)N[C@@H](CC(C)C)C(=O)N[C@@H](CC(C)C)C(=O)N[C@@H](CCCCN)C(=O)N[C@@H](CCC(N)=O)C(=O)N[C@@H](CCC(N)=O)C(=O)N[C@@H](CCCNC(=N)N)C(=O)N[C@@H](CCC(N)=O)C(=O)N[C@@H](CCCNC(=N)N)C(=O)N[C@@H](CCCCN)C(=O)N[C@@H](CCC(=O)O)C(=O)N[C@@H](CCCNC(=N)N)C(=O)N[C@@H](CCC(N)=O)C(=O)N[C@@H](CCC(N)=O)C(=O)N[C@@H](C)C(=O)N[C@@H](CCC(=O)O)C(=O)N[C@@H](CCCCN)C(=O)N[C@@H](CC(N)=O)C(=O)N[C@@H](CCCCN)C(=O)N[C@@H](CCCNC(=N)N)C(=O)N[C@H](C(=O)N[C@@H](CC(C)C)C(=O)N[C@@H](CCC(=O)O)C(=O)N[C@@H](CCCNC(=N)N)C(=O)N[C@H](C(N)=O)C(C)C)[C@@H](C)CC)C(=O)O) [peptide of SEQ ID NO: 226] | 0.04 |  | 
3 | FTLSLDVPTKIK([γGlu-Palmitoyl])QKLLKQEKQKKQRQKAKTNAQILAQV-NH2 (N-terminus assumed; SMILES CCCCCCCCCCCCCCCC(=O)N[C@@H](CCC(=O)NCCCC[C@H](NC(=O)[C@@H](NC(=O)[C@H](CCCCN)NC(=O)[C@@H](NC(=O)[C@@H]1CCCN1C(=O)[C@@H](NC(=O)[C@H](CC(=O)O)NC(=O)[C@H](CC(C)C)NC(=O)[C@H](CO)NC(=O)[C@H](CC(C)C)NC(=O)[C@@H](NC(=O)[C@@H](N)Cc1ccccc1)[C@@H](C)O)C(C)C)[C@@H](C)O)[C@@H](C)CC)C(=O)N[C@@H](CCC(N)=O)C(=O)N[C@@H](CCCCN)C(=O)N[C@@H](CC(C)C)C(=O)N[C@@H](CC(C)C)C(=O)N[C@@H](CCCCN)C(=O)N[C@@H](CCC(N)=O)C(=O)N[C@@H](CCC(=O)O)C(=O)N[C@@H](CCCCN)C(=O)N[C@@H](CCC(N)=O)C(=O)N[C@@H](CCCCN)C(=O)N[C@@H](CCCCN)C(=O)N[C@@H](CCC(N)=O)C(=O)N[C@@H](CCCNC(=N)N)C(=O)N[C@@H](CCC(N)=O)C(=O)N[C@@H](CCCCN)C(=O)N[C@@H](C)C(=O)N[C@@H](CCCCN)C(=O)N[C@H](C(=O)N[C@@H](CC(N)=O)C(=O)N[C@@H](C)C(=O)N[C@@H](CCC(N)=O)C(=O)N[C@H](C(=O)N[C@@H](CC(C)C)C(=O)N[C@@H](C)C(=O)N[C@@H](CCC(N)=O)C(=O)N[C@H](C(N)=O)C(C)C)[C@@H](C)CC)[C@@H](C)O)C(=O)O) [peptide of SEQ ID NO: 11] | 0.01 | > 1000 | 12.7
4 | FTLSLDVPTKIK([γGlu-Palmitoyl])QKLLKQEKQKKQRQKAKTAAQILAQV-NH2 (N-terminus assumed; SMILES CCCCCCCCCCCCCCCC(=O)N[C@@H](CCC(=O)NCCCC[C@H](NC(=O)[C@@H](NC(=O)[C@H](CCCCN)NC(=O)[C@@H](NC(=O)[C@@H]1CCCN1C(=O)[C@@H](NC(=O)[C@H](CC(=O)O)NC(=O)[C@H](CC(C)C)NC(=O)[C@H](CO)NC(=O)[C@H](CC(C)C)NC(=O)[C@@H](NC(=O)[C@@H](N)Cc1ccccc1)[C@@H](C)O)C(C)C)[C@@H](C)O)[C@@H](C)CC)C(=O)N[C@@H](CCC(N)=O)C(=O)N[C@@H](CCCCN)C(=O)N[C@@H](CC(C)C)C(=O)N[C@@H](CC(C)C)C(=O)N[C@@H](CCCCN)C(=O)N[C@@H](CCC(N)=O)C(=O)N[C@@H](CCC(=O)O)C(=O)N[C@@H](CCCCN)C(=O)N[C@@H](CCC(N)=O)C(=O)N[C@@H](CCCCN)C(=O)N[C@@H](CCCCN)C(=O)N[C@@H](CCC(N)=O)C(=O)N[C@@H](CCCNC(=N)N)C(=O)N[C@@H](CCC(N)=O)C(=O)N[C@@H](CCCCN)C(=O)N[C@@H](C)C(=O)N[C@@H](CCCCN)C(=O)N[C@H](C(=O)N[C@@H](C)C(=O)N[C@@H](C)C(=O)N[C@@H](CCC(N)=O)C(=O)N[C@H](C(=O)N[C@@H](CC(C)C)C(=O)N[C@@H](C)C(=O)N[C@@H](CCC(N)=O)C(=O)N[C@H](C(N)=O)C(C)C)[C@@H](C)CC)[C@@H](C)O)C(=O)O) [peptide of SEQ ID NO: 8] | 0.11 | > 1000 | 16
5 | IVLSLD[dV]PIKLK(C18 diacid)QILLKQARQK[Aib]QRAQAEKNKRILERV-NH2 (N-terminus assumed; SMILES CC[C@H](C)[C@H](N)C(=O)N[C@H](C(=O)N[C@@H](CC(C)C)C(=O)N[C@@H](CO)C(=O)N[C@@H](CC(C)C)C(=O)N[C@@H](CC(=O)O)C(=O)N[C@@H](C(=O)N1CCC[C@H]1C(=O)N[C@H](C(=O)N[C@@H](CCCCN)C(=O)N[C@@H](CC(C)C)C(=O)N[C@@H](CCCCNC(=O)CCCCCCCCCCCCCCCCC(=O)O)C(=O)N[C@@H](CCC(N)=O)C(=O)N[C@H](C(=O)N[C@@H](CC(C)C)C(=O)N[C@@H](CC(C)C)C(=O)N[C@@H](CCCCN)C(=O)N[C@@H](CCC(N)=O)C(=O)N[C@@H](C)C(=O)N[C@@H](CCCNC(=N)N)C(=O)N[C@@H](CCC(N)=O)C(=O)N[C@@H](CCCCN)C(=O)NC(C)(C)C(=O)N[C@@H](CCC(N)=O)C(=O)N[C@@H](CCCNC(=N)N)C(=O)N[C@@H](C)C(=O)N[C@@H](CCC(N)=O)C(=O)N[C@@H](C)C(=O)N[C@@H](CCC(=O)O)C(=O)N[C@@H](CCCCN)C(=O)N[C@@H](CC(N)=O)C(=O)N[C@@H](CCCCN)C(=O)N[C@@H](CCCNC(=N)N)C(=O)N[C@H](C(=O)N[C@@H](CC(C)C)C(=O)N[C@@H](CCC(=O)O)C(=O)N[C@@H](CCCNC(=N)N)C(=O)N[C@H](C(N)=O)C(C)C)[C@@H](C)CC)[C@@H](C)CC)[C@@H](C)CC)C(C)C)C(C)C) [peptide of SEQ ID NO: 183] | 1.12 |  | 
6 | IVLSLD[dV]PIKLK(C18 diacid)QILLKQERQKKQRQQAEKNKQILAQV-NH2 (N-terminus assumed; SMILES CC[C@H](C)[C@H](N)C(=O)N[C@H](C(=O)N[C@@H](CC(C)C)C(=O)N[C@@H](CO)C(=O)N[C@@H](CC(C)C)C(=O)N[C@@H](CC(=O)O)C(=O)N[C@@H](C(=O)N1CCC[C@H]1C(=O)N[C@H](C(=O)N[C@@H](CCCCN)C(=O)N[C@@H](CC(C)C)C(=O)N[C@@H](CCCCNC(=O)CCCCCCCCCCCCCCCCC(=O)O)C(=O)N[C@@H](CCC(N)=O)C(=O)N[C@H](C(=O)N[C@@H](CC(C)C)C(=O)N[C@@H](CC(C)C)C(=O)N[C@@H](CCCCN)C(=O)N[C@@H](CCC(N)=O)C(=O)N[C@@H](CCC(=O)O)C(=O)N[C@@H](CCCNC(=N)N)C(=O)N[C@@H](CCC(N)=O)C(=O)N[C@@H](CCCCN)C(=O)N[C@@H](CCCCN)C(=O)N[C@@H](CCC(N)=O)C(=O)N[C@@H](CCCNC(=N)N)C(=O)N[C@@H](CCC(N)=O)C(=O)N[C@@H](CCC(N)=O)C(=O)N[C@@H](C)C(=O)N[C@@H](CCC(=O)O)C(=O)N[C@@H](CCCCN)C(=O)N[C@@H](CC(N)=O)C(=O)N[C@@H](CCCCN)C(=O)N[C@@H](CCC(N)=O)C(=O)N[C@H](C(=O)N[C@@H](CC(C)C)C(=O)N[C@@H](C)C(=O)N[C@@H](CCC(N)=O)C(=O)N[C@H](C(N)=O)C(C)C)[C@@H](C)CC)[C@@H](C)CC)[C@@H](C)CC)C(C)C)C(C)C) [peptide of SEQ ID NO: 184] | 0.42 |  | 
7 | IVLSLD[dV]PIKLK([γGlu-Palmitoyl])QKLLKQQRQRKERQQAEKNKRILERV-NH2 (N-terminus assumed; SMILES CCCCCCCCCCCCCCCC(=O)N[C@@H](CCC(=O)NCCCC[C@H](NC(=O)[C@H](CC(C)C)NC(=O)[C@H](CCCCN)NC(=O)[C@@H](NC(=O)[C@@H]1CCCN1C(=O)[C@H](NC(=O)[C@H](CC(=O)O)NC(=O)[C@H](CC(C)C)NC(=O)[C@H](CO)NC(=O)[C@H](CC(C)C)NC(=O)[C@@H](NC(=O)[C@@H](N)[C@@H](C)CC)C(C)C)C(C)C)[C@@H](C)CC)C(=O)N[C@@H](CCC(N)=O)C(=O)N[C@@H](CCCCN)C(=O)N[C@@H](CC(C)C)C(=O)N[C@@H](CC(C)C)C(=O)N[C@@H](CCCCN)C(=O)N[C@@H](CCC(N)=O)C(=O)N[C@@H](CCC(N)=O)C(=O)N[C@@H](CCCNC(=N)N)C(=O)N[C@@H](CCC(N)=O)C(=O)N[C@@H](CCCNC(=N)N)C(=O)N[C@@H](CCCCN)C(=O)N[C@@H](CCC(=O)O)C(=O)N[C@@H](CCCNC(=N)N)C(=O)N[C@@H](CCC(N)=O)C(=O)N[C@@H](CCC(N)=O)C(=O)N[C@@H](C)C(=O)N[C@@H](CCC(=O)O)C(=O)N[C@@H](CCCCN)C(=O)N[C@@H](CC(N)=O)C(=O)N[C@@H](CCCCN)C(=O)N[C@@H](CCCNC(=N)N)C(=O)N[C@H](C(=O)N[C@@H](CC(C)C)C(=O)N[C@@H](CCC(=O)O)C(=O)N[C@@H](CCCNC(=N)N)C(=O)N[C@H](C(N)=O)C(C)C)[C@@H](C)CC)C(=O)O) [peptide of SEQ ID NO: 227] | 0.61 |  | 
